Measurements published in the supplement of paper PMC6755084.

B1: F1*; the commonest letter at each place (parent)
chain: GAGACCGCAACTGAAAAGTTGTTATCACTTGTCGTAAGACACTTTGGATGGGTTGAAGTTCTGCACGTAGAAGCAAAAGGC

Variants of: B1
Assay: fraction ligated after 30 min (ligated reads / total reads); higher = more ligase activity
Settings: with F1*sub RNA substrate (template-directed ligation), 42 °C
Summary of the method: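 Templates from an oligo pool were PCR-amplified, transcribed with T7 and gel-purified to give the ribozyme variants. Ligated and unligated products were separated on gel, reverse transcribed using barcoded primers, and read on a MiSeq. A quality filter of ≥20 was applied to core bases. Fraction ligated was taken as ligated reads as a share of all reads per variant.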
In the case of T23C A56T, the fraction ligated is reported as 0.802. Variant T30G A37C has a fraction ligated of 0.849. Work on A24T C28T yielded a fraction ligated of 0.794. For G34A A57G, the fraction ligated was 0.835. With T23G A48C the fraction ligated was 0.74. In the case of T30G T44A, the fraction ligated is reported as 0.831. In the case of T23G T44A, the fraction ligated is reported as 0.842. For T23C G47C, the fraction ligated was 0.0373. Work on T35A T44C yielded a fraction ligated of 0.826. G46T A56C showed a fraction ligated of 0.136. Work on G31T T43G yielded a fraction ligated of 0.76. Variant T25C T32G has a fraction ligated of 0.707. Work on G46A A48T yielded a fraction ligated of 0.0714. Variant A39T T45G has a fraction ligated of 0.1. Variant C42G T45C has a fraction ligated of 0.756. Variant A27G G50T has a fraction ligated of 0.596. For A36G A39T, the fraction ligated was 0.815. For C33A G46A, the fraction ligated was 0.84. T44A A48G gave a fraction ligated of 0.808. G31T A41T gave a fraction ligated of 0.772. For T25A T30G, the fraction ligated was 0.461. Variant T23G A37T has a fraction ligated of 0.821. For T43C G55C, the fraction ligated was 0.571. With T25C G55T the fraction ligated was 0.174. With A27G T49G the fraction ligated was 0.774. With G31C A36T the fraction ligated was 0.79. Variant G34T A57C has a fraction ligated of 0.806. T29A C40G gave a fraction ligated of 0.854. Work on C26A G55A yielded a fraction ligated of 0.618. In the case of T43A G46T, the fraction ligated is reported as 0.81. In the case of A37T T44A, the fraction ligated is reported as 0.834. Variant T23G A27C has a fraction ligated of 0.785. T23G A27T gave a fraction ligated of 0.801. T29G T30G gave a fraction ligated of 0.844. For A27G G46T, the fraction ligated was 0.796. A27G G46C gave a fraction ligated of 0.795. T54G showed a fraction ligated of 0.807. T45A G50A was tested, and the fraction ligated was 0.0303. T23G T49C was tested, and the fraction ligated was 0.748. In the case of T29C T43A, the fraction ligated is reported as 0.839. For A24T A27G, the fraction ligated was 0.748. T25G C33G was tested, and the fraction ligated was 0.535. C26A C33G showed a fraction ligated of 0.792. With A37C C42A the fraction ligated was 0.849. Variant T44C G55T has a fraction ligated of 0.779. Work on C26A G47A yielded a fraction ligated of 0.762. Work on C26A G47T yielded a fraction ligated of 0.235. G38C T44G was tested, and the fraction ligated was 0.839. In the case of C33T G34T, the fraction ligated is reported as 0.853. Work on A24G A39T yielded a fraction ligated of 0.664. Variant T30C A41T has a fraction ligated of 0.805. Variant G34C A37G has a fraction ligated of 0.845. T32A A57T gave a fraction ligated of 0.821. C26G A27G was tested, and the fraction ligated was 0.694. T43G G46A was tested, and the fraction ligated was 0.808. T30G C33G showed a fraction ligated of 0.854. T32G G55C gave a fraction ligated of 0.63. T30G G34C showed a fraction ligated of 0.795. T43C A48C showed a fraction ligated of 0.723. In the case of T25G G34T, the fraction ligated is reported as 0.735. G55A A57C was tested, and the fraction ligated was 0.786. T23G A36G showed a fraction ligated of 0.885. Work on T29C T32G yielded a fraction ligated of 0.794. Work on A37T G50A yielded a fraction ligated of 0.602. Work on A36G T49G yielded a fraction ligated of 0.761. C40T G55T showed a fraction ligated of 0.816. Variant T29G G50A has a fraction ligated of 0.345. For G47A A57G, the fraction ligated was 0.774. C42A A56G was tested, and the fraction ligated was 0.781. T35C C40G was tested, and the fraction ligated was 0.817. A36C A39C gave a fraction ligated of 0.803. T30A C33T gave a fraction ligated of 0.849. Work on G38C A57C yielded a fraction ligated of 0.824. G31C A48T gave a fraction ligated of 0.0135. With C42T G55A the fraction ligated was 0.844. T32A A56G showed a fraction ligated of 0.808. G50T G55C was tested, and the fraction ligated was 0.143. For A37T A56C, the fraction ligated was 0.786. T30G G46T was tested, and the fraction ligated was 0.785. In the case of A24C T49A, the fraction ligated is reported as 0.805. For A24C T49C, the fraction ligated was 0.731. C40G T43C showed a fraction ligated of 0.811. With T25G A37C the fraction ligated was 0.757. With T44G G46T the fraction ligated was 0.805. T44A G47C showed a fraction ligated of 0.117. Variant T44A G47A has a fraction ligated of 0.773. Work on A24C T29A yielded a fraction ligated of 0.747. For G55C A57T, the fraction ligated was 0.632. With C40T C42T the fraction ligated was 0.853. T23A A41C gave a fraction ligated of 0.757. G31T G38C showed a fraction ligated of 0.78. G31T G38T showed a fraction ligated of 0.801. Work on T45G A56T yielded a fraction ligated of 0.79. With T45G A56C the fraction ligated was 0.187. Work on C33A G50C yielded a fraction ligated of 0.0908. With A37C A48T the fraction ligated was 0.775. G50T A57G showed a fraction ligated of 0.526. In the case of C26A C42G, the fraction ligated is reported as 0.731. With A41G G47C the fraction ligated was 0.178. With G34C T44G the fraction ligated was 0.84. C26G A57T showed a fraction ligated of 0.312. T23G C42T gave a fraction ligated of 0.838. In the case of T23G G47A, the fraction ligated is reported as 0.79. Work on C40T A48T yielded a fraction ligated of 0.798. Variant C33T A37G has a fraction ligated of 0.878. G46C G50A was tested, and the fraction ligated was 0.0524. T35C T45G gave a fraction ligated of 0.399. G38C A48C was tested, and the fraction ligated was 0.269. A24C C42T showed a fraction ligated of 0.779. For A37T T49A, the fraction ligated was 0.802. In the case of A24C T35G, the fraction ligated is reported as 0.759. With A39T C40A the fraction ligated was 0.818. In the case of A27T A36T, the fraction ligated is reported as 0.798. For A41C T45A, the fraction ligated was 0.55. For G34A A37C, the fraction ligated was 0.835. T23A A48T gave a fraction ligated of 0.68. T35A A57T showed a fraction ligated of 0.809. In the case of A27T A48C, the fraction ligated is reported as 0.729. Variant C26A T49A has a fraction ligated of 0.216. In the case of G38T A57C, the fraction ligated is reported as 0.811. Work on T44G G50C yielded a fraction ligated of 0.0717. C40G G47C gave a fraction ligated of 0.147. In the case of C28G G46A, the fraction ligated is reported as 0.811. With T32G G50T the fraction ligated was 0.384. T29G A36T was tested, and the fraction ligated was 0.826. C26G C40G gave a fraction ligated of 0.793. A39C G47A showed a fraction ligated of 0.757. With G31C T35C the fraction ligated was 0.769. In the case of T32A G50T, the fraction ligated is reported as 0.454. T29C A57T showed a fraction ligated of 0.774. For G50A A56C, the fraction ligated was 0.0252. In the case of A24C A36C, the fraction ligated is reported as 0.763. G38T T44G showed a fraction ligated of 0.828. For A41C T49G, the fraction ligated was 0.209. Variant T25G C26G has a fraction ligated of 0.0648. With T23C G31C the fraction ligated was 0.666. A24T T29C gave a fraction ligated of 0.6. In the case of T29C A56T, the fraction ligated is reported as 0.795. Work on C42T A57T yielded a fraction ligated of 0.847. In the case of A37C G46A, the fraction ligated is reported as 0.78. C28A G38A gave a fraction ligated of 0.789. Variant A37G G55T has a fraction ligated of 0.834. A24T T25A gave a fraction ligated of 0.735. C26T C40A was tested, and the fraction ligated was 0.797. With C33G T43C the fraction ligated was 0.812. For C42T G50A, the fraction ligated was 0.634. Variant T32G T45A has a fraction ligated of 0.748. A48G G55A gave a fraction ligated of 0.787. T29A T45C showed a fraction ligated of 0.651. For C26T G34C, the fraction ligated was 0.855. In the case of A37C G50A, the fraction ligated is reported as 0.616. For A37C G50C, the fraction ligated was 0.439. For T23G T29G, the fraction ligated was 0.797. Work on T23G T29C yielded a fraction ligated of 0.784. In the case of T35C A56G, the fraction ligated is reported as 0.782. C28G A39G was tested, and the fraction ligated was 0.772. For T32C G50T, the fraction ligated was 0.273. In the case of T23G G55C, the fraction ligated is reported as 0.809. In the case of A39C A56T, the fraction ligated is reported as 0.771. Work on T32G C42T yielded a fraction ligated of 0.846. T30G T45G showed a fraction ligated of 0.46. In the case of C28G G38T, the fraction ligated is reported as 0.772. With T45G A57C the fraction ligated was 0.791. Variant C40T A56C has a fraction ligated of 0.773. Work on T49C A57G yielded a fraction ligated of 0.445. With C26A T30G the fraction ligated was 0.802. Work on G34A A56C yielded a fraction ligated of 0.804.
